Data reported in US20130273056A1 (NATIONAL UNIVERSITY OF SINGAPORE, published 2013).

Molecular target: T1, Estrogen receptor alpha (ERα) (UniProt P03372 1-595, limits assumed)
T1 sequence (looked up): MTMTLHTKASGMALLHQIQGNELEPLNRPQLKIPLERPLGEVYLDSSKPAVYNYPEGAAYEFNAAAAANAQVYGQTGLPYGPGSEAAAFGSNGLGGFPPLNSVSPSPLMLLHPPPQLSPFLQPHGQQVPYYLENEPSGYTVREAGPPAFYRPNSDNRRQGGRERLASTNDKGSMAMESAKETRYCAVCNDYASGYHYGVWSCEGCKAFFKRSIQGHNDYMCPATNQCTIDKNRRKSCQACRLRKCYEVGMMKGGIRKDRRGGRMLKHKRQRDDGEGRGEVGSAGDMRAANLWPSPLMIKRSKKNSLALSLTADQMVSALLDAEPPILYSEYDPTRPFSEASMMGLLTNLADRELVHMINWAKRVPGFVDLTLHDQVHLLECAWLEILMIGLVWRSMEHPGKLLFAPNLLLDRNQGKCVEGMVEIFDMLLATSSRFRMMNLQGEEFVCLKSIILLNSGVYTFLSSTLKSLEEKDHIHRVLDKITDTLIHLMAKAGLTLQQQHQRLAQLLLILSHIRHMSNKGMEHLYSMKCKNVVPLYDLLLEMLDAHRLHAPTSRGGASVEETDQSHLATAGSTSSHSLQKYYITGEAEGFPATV
Test: cell-based or functional assay

- ERα reporter activity (ERE-luciferase), loss of coactivator activity relative to vector and compared to WBP2: ~60%
B1: WBP2 Y192-231F phospho-defective double mutant, V5-tagged (other, not shown: small tags and cut ends)
chain: MALNKNHSEGGGVIVNNTESILMSYDHVELTFNDMKNVPEAFKGTKKGTVYLTPYRVIFLSKGKDAMQSFMMPFYLMKDCEIKQPVFGANYIKGTVKAEAGGGWEGSASYKLTFTAGGAIEFGQRMLQVASQASRGEVPSGAYGYSYMPSGAYVYPPPVANGMYPCPPGYPYPPPPPEFYPGPPMMDGAMGFVQPPPPPYPGPMEPPVSGPDVPSTPAAEAKAAEAAASAFYNPGNPHNVYMPTSQPPPPPYYPPEDKKTQ
